From article PMC10743992, “A Transient π–π or Cation–π Interaction between Degron and Degrader Dual Residues: A Key Step for the Substrate Recognition and Discrimination in the Processive Degradation of SulA by ClpYQ (HslUV) Protease in Escherichia coli” (International Journal of Molecular Sciences, 2023)

T1: His (6x)-tagged ClpY (Escherichia coli, UniProt P0A6H5 1-443)
T1 construct: ClpY (HslU) ATPase/unfoldase of Escherichia coli, wild type, cloned in pET21a at NdeI-HindIII; Used as the 6-oligomer (1.3 uM) with 5 mM ATP; also called His-ClpY; HslU
T1 sequence (looked up): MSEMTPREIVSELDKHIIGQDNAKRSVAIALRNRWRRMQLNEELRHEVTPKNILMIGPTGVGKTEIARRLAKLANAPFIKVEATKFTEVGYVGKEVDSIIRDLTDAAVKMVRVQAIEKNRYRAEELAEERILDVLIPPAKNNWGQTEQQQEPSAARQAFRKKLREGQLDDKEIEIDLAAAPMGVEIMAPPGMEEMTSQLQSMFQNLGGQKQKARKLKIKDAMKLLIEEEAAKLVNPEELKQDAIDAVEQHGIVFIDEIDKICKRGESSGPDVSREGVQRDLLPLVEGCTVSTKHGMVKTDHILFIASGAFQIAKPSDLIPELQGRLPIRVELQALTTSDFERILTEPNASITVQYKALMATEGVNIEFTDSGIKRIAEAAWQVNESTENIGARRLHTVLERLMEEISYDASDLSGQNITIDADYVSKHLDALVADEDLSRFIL


target: T1, His (6x)-tagged ClpY; test: pull-down; His-ClpY (6-oligomer, 1.3 uM) held on cobalt resin; MBP-SulA or variant 7.8 uM; 50 mM HEPES pH 7.4, 150 mM NaCl, 5% glycerol, 5 mM MgCl2, 0.04% Triton X-100, 5 mM ATP, 41 °C 3 h, then resin at 4 °C; 10 washes with 300 mM NaCl; SDS-PAGE, Coomassie; conditions: both partners purified

binding result | Binder
binds | MBP-SulA (natural protein, Escherichia coli, UniProt P0AFZ5 1-169, looked up, also called wild-type MBP-SulA; source: E. coli BL21 (DE3), purified (amylose resin)) MYTSGYAHRSSSFSSAASKIARVSTENTTAGLISEVVYREDQPMMTQLLLLPLLQQLGQQSRWQLWLTPQQKLSREWVQASGLPLTKVMQISQLSPCHTVESMVRALRTGNYSVVIGWLADDLTEEEHAELVDAANEGNAMGFIMRPVSASSHATRQLSGLKIHSNLYH
binds | MBP-SulA^F143H (natural protein, Escherichia coli, UniProt P0AFZ5 1-169, looked up, SulA of Escherichia coli with F143H, cloned in pMal-c2X at EcoRI-BamHI; source: E. coli BL21 (DE3), purified (amylose resin)) MYTSGYAHRSSSFSSAASKIARVSTENTTAGLISEVVYREDQPMMTQLLLLPLLQQLGQQSRWQLWLTPQQKLSREWVQASGLPLTKVMQISQLSPCHTVESMVRALRTGNYSVVIGWLADDLTEEEHAELVDAANEGNAMGHIMRPVSASSHATRQLSGLKIHSNLYH
binds | MBP-SulA^F143K (natural protein, Escherichia coli, UniProt P0AFZ5 1-169, looked up, SulA of Escherichia coli with F143K, cloned in pMal-c2X at EcoRI-BamHI; source: E. coli BL21 (DE3), purified (amylose resin)) MYTSGYAHRSSSFSSAASKIARVSTENTTAGLISEVVYREDQPMMTQLLLLPLLQQLGQQSRWQLWLTPQQKLSREWVQASGLPLTKVMQISQLSPCHTVESMVRALRTGNYSVVIGWLADDLTEEEHAELVDAANEGNAMGKIMRPVSASSHATRQLSGLKIHSNLYH
